Key:
Conditions in all cases: none besides dye labels, binding temperature not given
PARP2 (mouse) [1] = experiment: EMSA
PARP2 (mouse) [2] = experiment: spFRET
PARP2 (mouse) [3] = experiment: EMSA; remark: listed apart in the source

Substance: NP nucleosome (603, 187 bp)
- K half (PARP2 (mouse) [1]): 40 nM
- K half (PARP2 (mouse) [2]): 19 nM
- K half (PARP2 (mouse) [3]): 40 nM

— article doi:10.1101/2023.10.17.562808
